Test results as given in publication PMC8195445.

How the values were obtained:
[1] = target: GST-calmodulin N-half (CaM-N, residues 1–74) (UniProt P0DP23); assay: pull-down
[2] = target: GST-calmodulin C-half (CaM-C, residues 75–148) (UniProt P0DP23); assay: pull-down

| Substance | percent of the binding of IQ3R to Ca2+-CaM-F [1] [%] | percent of the binding of IQ3R to Ca2+-CaM-F [2] [%] | percent of the binding to Ca2+-CaM-F [1] [%] |
| --- | --- | --- | --- |
| IQGAP1 IQ domain (amino acids 717–916) IQ3R mutant (from UniProt P46940 717-916) (domain or fragment) | 27 | 15 |  |
| IQGAP1 wild-type IQ domain (amino acids 717–916) (from UniProt P46940 717-916) (domain or fragment) |  |  | 32 |
